Publication PMC8315086 (Cell Discovery, 2021)

How the values were obtained:
Conditions in all cases: both partners purified
[1] = target: T1, recombinant SARS-CoV-2 S1 protein (Kactus Biosystems) (SARS-CoV-2, original wild type …, UniProt P0DTC2); test: SPR
[2] = target: T1, recombinant SARS-CoV-2 S1 protein …; test: SPR; remark: listed apart in the source
[3] = target: SARS-CoV-2 S1-His protein (SARS-CoV-2); test: ELISA
[4] = target: SARS-CoV-2 S1-hFc protein (SARS-CoV-2); test: ELISA

B1: 2B11 monoclonal antibody (full-length human IgG1) (antibody, V domains shown)
VH: EVQLVESGGGLVQPGGSLRLSCAASEITVSSNYMNWVRQAPGKGLEWVSVIYSGGTTYYADSVKGRFTISRDNSENTLYLQMNSLRAEDTAVYYCARDLMEVGGMDVWGQGTTVTVSS
VL: LPVLTQPPSASGTPGQRVTISCSGSSSNVENDNVNWFQQQVPGSTPKLVIYNDRLRPSGVPDRFSGSKSGTSAYLAISGLQSEDEADYYCVAWDASLQSYVFGTGTKVTVL
Work on B1 yielded a Kd [1] of 4.67 nM, a Kd [2] of 4.76 nM and an EC50 [3] of 0.051 nM. For the same binder, the IC50 [4] was 2.79 nM.
